# Assay: soluble on expression in E. coli; label from the status in PepcDB or PDB records
row,Sequence,soluble on expression in E. coli
1,MGSDKIHHHHHHMPLSPQQDILEIDQDASVLRFAPQAGGRLMSWTIDGEAVIHWPEHADWSQPARIRGGNPLLFPFLGRHRVDGKIGYWRDAKGTVRELPMHGFARDLPFEAHADVHGAGLRMILTDSTATRHGYPFGFRLETAYCLADARTLDVTFTTTNTGDSRLPSRLPYYAGHHFYFTLPHTQRAATSLELPRTERRHQQDDGSISAAEPGEARYTLDEARIQDRFHCLAGAPDRPVRLVAPGLDRIVTIDLQRPDSIPWYAVTTWTEAAESDFYCVEPWLGLPDAIHNGMGLRWLEPGQTEVAALRISVDKLG,not soluble
2,MEEMMMNDPSAMVIYEEEVTTAPNLPCSLIQQRSWDEEKPIGYELTNTKCYKTPNGVQKTATIQREQLSTSKDFGEQQIVEMDGEFSIEGTDMHAIPCTSSSMQPSTSSNPSSGEHQPVPLRRMAIKIGQRVLRFKVISAEEAPEAPLDTQDSWINDPKPVTTPKALAGLYRCTNCKTYFGNKEVYQRHIQEVHGDARPFRCFNCGMRFANKTSMTHHLKDHSLLKPMFSCDYCPRIFSKLESKTRHHKMHFTRSTCQTCMRFFTTEDALRHHQSTAHPATFDSGPPPEDLLPNGKSARYSCSYCNLRFHFKKDMLVHERIHTGEKPYSCGYCMKSFAQSQALTAHIRTHTKELPYGCGKCDKRFRDNSCLRKHELAAHTDEPIVRPISVAYSNQVQKQMQRQRENRRKQELLIAERHPYRI,not soluble
3,MDEMIFDPTMSKKKKKKKKPFMLDEEGDAQTEETQPSETKEVEPEPTEEKDVDADEEDSRKKDASDDLDDLNFFNQKKKKKKTKKIFDIDEAEEAIKDVKIESDAQEPAEPEDDLDIMLGNKKKKKKNVKFPEEDEILEKDEALEDEDSKKDDGISFSSQTAWAGSERDYTYEELLNRVFNIMREKNPDMVAGEKRKFVMKPPQVVRVGTKKTSFVNFTDICKLLHRQPKHLLAFLLAELGTSGSIDGNNQLVIKGRFQQKQIENVLRRYIKEYVTCHTCRSPDTILQKDTRLYFLQCETCHSRCSVASIKTGFQAVTGKRAQLRAKAN,soluble
4,MHHHHHHSSGVDLGTENLYFQSMDVGIVALEIYFPSQYVDQAELEKYDGVDAGKYTIGLGQAKMGFCTDREDINSLCMTVVQNLMERNNLSYDCIGRLEVGTETIIDKSKSVKTNLMQLFEESGNTDIEGIDTTNACYGGTAAVFNAVNWIESSSWDGRYALVVAGDIAVYATGNARPTGGVGAVALLIGPNAPLIFERGLRGTHMQHAYDFYKPDMLSEYPIVDGKLSIQCYLSALDRCYSVYCKKIHAQWQKEGNDKDFTLNDFGFMIFHSPYCKLVQKSLARMLLNDFLNDQNRDKNSIYSGLEAFGDVKLEDTYFDRDVEKAFMKASSELFSQKTKASLLVSNQNGNMYTSSVYGSLASVLAQYSPQQLAGKRIGVFSYGSGLAATLYSLKVTQDATPGSALDKITASLCDLKSRLDSRTGVAPDVFAENMKLREDTHHLVNYIPQGSIDSLFEGTWYLVRVDEKHRRTYARRP,soluble
5,MFYKEENFKKTEIGEIPEDWEIVELKDVCKKIKAGGTPKTSVEEYYKNGTIPFVKIEDITNSNKYLTNTKIKITEEGLNNSNAWIVPKNSVLFAMYGSIGETAINKIEVATNQAILGIIPKDNILESEFLYYILAKNKNYYSKLGMQTTQKNLNAQIVKSFKIPLPPLEEQKQIAKILTKIDEGIEIIEKSINKLERIKKGLMHKLLTKGIGHSRFKKSEIGEIPEDWEVFEIKDIFEVKTGTTPSTKKSEYWENGEINWITPLDLSRLNEKIYIGSSERKVTKIALEKCNLNLIPKGSIIISTRAPVGYVAVLTVESTFNQGCKGLFQKNNDSVNTEFYAYYLKFKKNLLENLSGGSTFKELSKSMLENFKIPLPPLEEQKQIAKILSSVDKSIELKKQKKEKLQRMKKKIMELLLTGKVRVKT,soluble
6,MLGVGKIGGAIVKSLLSCGAVVTGTGRRRETLERISRLGAEATVDNRLAAKVSDVVILSVKPYQLPRLLEEIRDVMEGKIVVSVVAGVRLSTLSRALEGSHVYRAMPNINALIGRSTTAVAEYTGDKRASFVESILSCMGSVYWIPEEWMDVWTALVGSMPAYVAVMIDSLTLGGVSAGLPREVAFKAVIDTLGATAEHLGKRDIHPSVLRDEVTTPAGTTIEGLKVIEGEGVDAALIRTVEAAARRAAAIGEAIDNEVRRSLNLRAAALEHHHHHH,not soluble
7,ITRDEVGELARVMNEMASQIERNLARISAEKNRLDTILRGMGEGLMVSDAGGTVTLVNPAFLELFGLTQSVEGRQIIEIARFPELHETFRAVVSSRSEHVEEMTLPLGDEKQVLTHWVPLMEE,not soluble
8,AHHHHHHGSKFNEFKTPQIDPIFDLYVAYGYVESLIRGGAKEATLIPHGASYLIQTDVSNEEFRHGLVDALSEMLSLHIALARHSPREGGKLVSDADFSAGANINNVYWDSVPRNLEKVMKDLEKKRSVKGTATIPITLMPSAGKYMLKHFGVQGGNPIKVDLLNYALAWVGFHYYTPYIKYAKGDTTWIHIYQIAPVEEVDMISILSLKDLKMHLPHYYESNLDFLINRRLALLYHLLHSESLGALELFTEKEFVIHSYTLERSGNNQAIRSFEEEEIGKLMDFLWKLKRRDFYHAIKFIDDLLKKATEGALALIDAIMNERLEGFYTALKLGKKAGVVSSREIVAALEDIICER,not soluble
9,GPGSMGVDLTGISKKSRVIRHHTYSTNPYIKLLIKLYKFLAKRTSSGFNKVVYQRLIKSRSNRAPISLSRIAVVMKRKAVFTAKSKAAPIAVVVGDVLDDVRMARIPAMRVCALRFSKSARQSIVAAGGECLTFDQLAMIAPTGKNTYLLRGRKSGRESVRHFGASGVPGSHSKPYATNRGKETKRGRRTGRSYKRKAFRHV,soluble
10,MEEKKEDKFILLKNLYEEWKDCTRCDLHKSRTRVVPGDGNPYSLLVFVGEAPGEEEDRQGKPFVGRAGQLLNRLIEEVLGMKREDVYITNVCKCRPPQNRKPTPIEMRACFPYLKKEIEIIQPKVICCLGATAGEGILGKSLRITKVRGQVFPYPYNPRIKVFLTYHPAYVLRNPKEETTIIKDFEKLKELLTQE,soluble
11,MIMSKIKLTKNDLKKQKDELKMFKRYLPTLQLKKQQLYMEIVKIENSYKIKNLEQQKLKENISNWISLFSEKFPFESWIQVKTVVKKSLNIAGVAIPIFDSIEYEDIRHDLLFTPYWVDKGIEILKVVIQIDVELKILKKQIDLLLREFRITSQRVNLFEKVMIPTAKANIKKINIYLGDQQTAAVVRGKIAKSSLIKKNRNSLLEHHHHHH,not soluble
12,MGSDKIHHHHHHMSTPSPALFFNTVNAYQRSAAIKAAVELNVFTAISQGIESSQSLAQKCQTSERGMRMLCDYLVIIGFMTKQAEGYRLTSDSAMFLDRQSKFYVGDAIEFLLSPMITNGFNDLTAAVLKGGTAISSEGTLSPEHPVWVQFAKAMSPMMANPAQLIAQLVNENKIEPLKVLDISASHGLFGIAVAQHNPNAEIFGVDWASVLEVAKENARIQGVASRYHTIAGSAFEVDYGNDYDLVLLPNFLHHFDVATCEQLLRKIKTALAVEGKVIVFDFIPNSDRITPPDAAAFSLVMLATTPNGDAYTFAEYESMFSNAGFSHSQLHSLPTTQQQVIVAYK,not soluble
13,MNKKRMIAMVSTALLVTGCAEVGNAQTVAVENSGQSVQKNIVKSIQSQANPLKTIEPSKPFEDLKPLKKMIGNAQYVGLGENTHGSSEIFTMKFRLVKYLVTEMGFTNFAMEEDWGNGLKLNEYIQTGKGNPREFLKLLYPTDEIIAMIEWMKDYNADPSNKKKIQFIGLDLKALDQGSFNKVIDYVRLHRPDLLAEVEENYKELSSFTGSIQEYMKLTPKLKEKFKANAERVARLLKDENEQANTEIIPSEYIWAKATASAIEKFTTMLLPNDYPSIIKLHEQYLADHAMWAQETFGGKTMVWAHNIHIAKGIIDEKLYPYVAGQFLKERLDNNYVTIGSTTTEGNFTLYSEYNPSTGGKITTDTIPQDVKSFNYTLGKVPYKMFLLDNRHLKGQAEKWVKAKRPLLSIGGQILPNSSVYFDTSLLEQFDIIFHIRKTSPSHIKLEHHHHHH,soluble
14,GPGSMMSSATLSDVETLENIPRGAPIGGSGIVSGTASEGSSRGAERSTVANVSEDGERGRREEEEDRKPLIMDQSVIMDEEPYISPAKAKKISWKCGLCGYYVLAMDHNGNPLELTNSPSGEPLPMSCPRCMLLHHDWEPAVPFDDFNNHANIRSKQSNSYVISDQKSGKQAGFVPARTPAERDLKKTSADITRILQEVEDRWRNYAPRESPTSREQGPKGRLMAYYCDKCNRELLRMDQYGELVPMVSDKEGKPLPIVCPGCKEEHSEWVVRPFTVTR,soluble
15,EKQNEIQKKKARRHQLAMDYPEFISTFTLYLGAGMPARRAWFQIASVYRQQENTRYVYEEMVYTMREMQRGTPESECYEHFGMRCGLPVYRKFAVMLSQNLRKGTKGLAELLQREAAGAFEERKAAARKLGEETSTR,not soluble
16,MGSDKIHHHHHHMIKRLKIKNFKSYRDSEFEFEKVSIVVGPNGSGKTNLVDAFSFLKQLIRPLSYPPYPFIRWGDYKNVVFMQDENLDISFEIDGEYKGKDYHYEISLNKLQIKKEIINFDSYSMERRGNVIRYENKEMTIPDNLSVFNLFFAQPFIIAYNLNFTLPPELLNFMTNFLNDVGVFRIVPQIAVSPVHFTFPEALDENGRGLVKVISNNLSRINETKQVYDFLVENNISLRPVFTEDGNIRLHFIEKSENNKELILLPASVPDGFIKMLTIIIAVYLLKMSTIIIDEIENSLHLKYIERLVDIMRYSDSQFIATTHSPLIIDFMDPFRNNNS,not soluble
17,MTLKFSYFGTRGIGEPIRMLLTDQEVAFIDHRFSWEQWADIKPTMIFGSCPCLTMGDKEIVQSGTIIRHLARIHGLNGTNEEETIFIDMFYEGVRDLHATYATMIYQNYENGRQPFIQDVLPEHLARLEKLFRTYENGENFVAGANISYVDYVLFEELDIQKILSPTALDRTPQLKKFHEQFGERKNLTEYLKKRAIMKTPVNGNGKQ,not soluble
18,APADKPQVLASFTQTSASSQNAWLAANRNQSAWAAYEFDWSTDLCTQAPDNPFGFPFNTACARHDFGYRNYKAAGSFDANKSRIDSAFYEDMKRVCTGYTGEKNTACNSTAWTYYQAVKIFG,soluble
19,MSLEFQLDLIRGEHMEIEKLLEQVNWEKNNGIVPVIVQDEKGEVLTLAYMNKEALRKTLETGIAHYYSRSKGRIRMKGEVSGNIQTVKEIKIDCDNDALLLIVSPKGPACHTGNYSCFYRKLGEPERVLPIDYSLSILKELEEIIKRRKETPVEGSYTSKLFKEGREKIYKKFGEEAIEVLVAEKRERIIYEVADLLYHLLVLLTYNDISLGEVMNELRRRRKEGHHHHHH,soluble
20,MAHHHHHHMEESDEDDNIQVIVFGNSSEAKFDDFYREEDIKKEEIQDNINDAMVPNESNEQDKAQNEDVDLESKVQNATKENKVFMKYDYTHEKPWSNHGDKSMWFNYNFDEHTFKEWVQKHIDRKLEKQQNYQIENTDNYFFEDTFKGNMMNTSSVNNQSMQGIKSFPSKNMNPFNTSKLIEHNGSPNYTSNKMDKIKNNNNNNNNKNNSNSNNKNNSNNKNNSNSNNRSDINQTTTNTNNDLKQFQNLINFLKQNN,not soluble
21,DRRFQETLDKIRKEEGYDFAAIAFYESNKPSSPIKWHYVSGNKNNRFKLIILRKGRGLAGTVMKTGKRMVIANVGLALGPEEKIDYPILLSESLTAVLAVPLWYKNQVYGVLLFGQRDGRPLPKIFDNDDIQ,not soluble
22,MLMLEREKLARLIKKRSLKVADEPVFKLSSGKLSRYYVDLKQITFDPEGDYLIGKAMYELVKEFNPDACGGLTLGADPIAYAIAFVSLMDSNPIKPFVVRKEPKGHGMKRQIEGLLNPGERVAVLEDVVTTGSSALKAVKACREYGLEVIGVFAVVDREEGGRENIEKEGIPLYSLFKLSELL,soluble
23,IALENTIEQRLAADVATLVSAARVEKGRLVMPEHLPVEEFNLPEAKVLGYIYDQNGDLLWRSTSAADESINYTPRYDGRGNEFHTTRDAKGEEFFVFDVEIDLLRGKQAAYSIVTMQSVSEFESLLKGFREQL,not soluble

# From the DeepSol protein solubility set
